Consider four substances from US20110305634A1.

Assay [1] deals with Recombinant human DSG2 protein (desmoglein 2) (human) (UniProt Q14126). The assay is described as follows: SPR, DSG2 immobilized; summary table of FIG. 13B (no unit in the table, RU from the axis of 13B). For orientation: SPR reads the build-up and loss of mass on a sensor chip optically.
For assay [2] the target is unchanged. The assay is described as follows: SPR, DSG2 immobilized; summary table of FIG. 13B.
The target is the same in assay [3]. The assay can be described thus: SPR, DSG2 immobilised, Ad3-K/S/Kn injected at 10 mg/ml (so in the source).
Assay [4] shares this target. The assay is described as follows: SPR, DSG2 immobilised, PtDd injected at 3 mg/ml (so in the source).
For assay [5], the target named is Desmoglein 2 (DSG2) of human cells (human) (UniProt Q14126). The assay is described as follows: cell-based or functional assay.
Chain of Desmoglein 2 (DSG2) of human cells (human) (Q14126 50-1118): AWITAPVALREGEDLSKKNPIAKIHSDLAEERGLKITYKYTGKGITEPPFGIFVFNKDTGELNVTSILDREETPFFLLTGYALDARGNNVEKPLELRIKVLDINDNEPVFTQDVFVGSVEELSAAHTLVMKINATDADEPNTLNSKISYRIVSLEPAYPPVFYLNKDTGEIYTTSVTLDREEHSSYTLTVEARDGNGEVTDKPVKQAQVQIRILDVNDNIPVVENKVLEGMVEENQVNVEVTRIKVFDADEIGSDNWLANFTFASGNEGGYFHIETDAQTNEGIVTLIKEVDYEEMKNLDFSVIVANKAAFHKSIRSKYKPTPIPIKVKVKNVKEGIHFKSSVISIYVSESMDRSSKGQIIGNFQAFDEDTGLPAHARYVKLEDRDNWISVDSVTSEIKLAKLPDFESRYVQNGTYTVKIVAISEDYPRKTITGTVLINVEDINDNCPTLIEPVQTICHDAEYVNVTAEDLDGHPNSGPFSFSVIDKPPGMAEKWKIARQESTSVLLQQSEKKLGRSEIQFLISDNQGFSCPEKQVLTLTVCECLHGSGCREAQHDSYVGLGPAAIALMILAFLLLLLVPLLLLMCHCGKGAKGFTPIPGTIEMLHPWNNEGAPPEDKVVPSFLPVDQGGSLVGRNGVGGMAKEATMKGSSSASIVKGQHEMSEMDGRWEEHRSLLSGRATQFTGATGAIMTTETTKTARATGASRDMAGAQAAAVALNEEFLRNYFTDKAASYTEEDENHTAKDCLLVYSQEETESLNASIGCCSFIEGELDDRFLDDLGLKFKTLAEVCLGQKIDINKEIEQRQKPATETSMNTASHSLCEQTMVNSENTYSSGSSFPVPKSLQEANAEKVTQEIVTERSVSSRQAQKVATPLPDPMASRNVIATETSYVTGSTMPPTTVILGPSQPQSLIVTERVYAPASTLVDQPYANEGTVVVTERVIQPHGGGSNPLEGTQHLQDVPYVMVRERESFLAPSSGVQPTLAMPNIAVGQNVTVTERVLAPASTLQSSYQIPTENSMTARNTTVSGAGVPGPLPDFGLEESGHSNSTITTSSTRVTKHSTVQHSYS
Assay [6] has the same target. The assay can be described thus: competition of 3H-Ad3 attachment to HeLa cells after pre-incubation with the named protein; the number is the Ad3 still bound (PBS: 512).
Assay [7] has the same target.
For assay [8] the target is unchanged. This is another data set of the same source.
Assay [9] shares this target. The source holds these as a separate data set.
Assay [10] shares this target. This is another data set of the same source.
Assay [11] has as its target Recombinant human DSG2 protein (desmoglein 2) (human) (UniProt Q14126). The assay can be described thus: SPR (BIAcore 3000), recombinant human DSG2 immobilised on CM4 chip, PtDd injected.
Assay [12] concerns the target Ad5/3L-GFP chimeric adenovirus vector (human adenovirus serotype 5; human adenovirus serotype 3) (UniProt P11818).

Where two headings read alike, the source gives them in different places.

Chain of Recombinant human DSG2 protein (desmoglein 2) (human) (Q14126 50-609 limits assumed): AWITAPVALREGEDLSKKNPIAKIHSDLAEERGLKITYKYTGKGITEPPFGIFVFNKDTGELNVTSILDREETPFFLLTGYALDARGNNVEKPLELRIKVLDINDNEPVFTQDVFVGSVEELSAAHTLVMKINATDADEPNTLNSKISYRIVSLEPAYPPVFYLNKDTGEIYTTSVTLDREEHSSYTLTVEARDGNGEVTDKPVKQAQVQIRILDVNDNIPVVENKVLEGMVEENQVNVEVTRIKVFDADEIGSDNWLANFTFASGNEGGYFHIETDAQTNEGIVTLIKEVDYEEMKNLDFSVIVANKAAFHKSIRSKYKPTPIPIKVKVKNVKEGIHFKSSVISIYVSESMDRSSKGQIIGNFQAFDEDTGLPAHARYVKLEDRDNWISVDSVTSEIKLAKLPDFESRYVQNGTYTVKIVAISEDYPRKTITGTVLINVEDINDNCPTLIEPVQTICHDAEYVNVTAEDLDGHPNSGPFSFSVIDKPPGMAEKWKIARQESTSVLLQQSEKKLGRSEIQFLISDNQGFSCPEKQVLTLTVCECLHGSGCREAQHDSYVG
Chain of Recombinant human DSG2 protein (desmoglein 2) (Q14126 50-609 limits assumed): as above

On to “Ad3-K/S/Kn, junction opener 1 (JO-1) (ligand; other documents disagree on this pair)”, for which, in assay [1], the Binding at the end of association was determined as 113 RU and the Remaining binding after 150s dissociation stood at 96.9 RU. The % of remaining binding after 150s in assay [2] is 85.9%. In addition, in assay [3], the SPR response came to 100 RU.
Usually Kd stands for the concentration at which binding is half-saturated. For the substance “Recombinant Ad3 penton-dodecahedra (PtDd)”, the SPR response in assay [4] came out at 100 RU. Also, the Herceptin cytotoxicity on BT474 cells (WST-1 viability) in [5] amounted to 2 fold. Also, in [6], the Bound 3H-Ad3 VP/cell (with this competitor) was 12 VP/cell. Further, the IC50 (read off the curve), Ad3-GFP transduction of HeLa cells (% of GFP+ cells) in assay [7] was 2 µg/mL. For the same substance, the IC50 (read off the curve), Ad3-GFP transduction of HeLa cells (% of GFP+ cells) in assay [8] stood at 1 µg/mL. Also, in [9], the IC50 (read off the curve), Ad3-GFP transduction of HeLa cells (GFP MFI) amounted to 0.2 µg/mL; the IC50 (read off the curve), Ad5/3L-GFP transduction of HeLa cells (GFP MFI) was determined as 0.5 µg/mL; the IC50 (read off the curve), Ad5/3S-GFP transduction of HeLa cells (GFP MFI) was determined as 0.2 µg/mL. Besides, the IC50 (read off the curve), Ad3-GFP infection of HeLa cells (% of GFP+ cells) in assay [10] is 0.7 µg/mL. For the same substance, in assay [1], the Binding at the end of association was 133 RU and the Remaining binding after 150s dissociation turned out to be 130 RU. The Kd in [11] was determined as 2.5 nM. Moreover, in [2], the % of remaining binding after 150s stood at 98%.
In [12], “Recombinant human DSG2 protein (desmoglein 2) (from UniProt Q14126 50-609) (receptor)” displayed an IC50 (read off the curve), Ad5/3L-GFP transduction of HeLa cells (GFP MFI) of 1 µg/mL.
Take Recombinant Ad3 base dodecahedra (BsDd): in assay [6], the Bound 3H-Ad3 VP/cell (with this competitor) came to 556 VP/cell.
